Target: the molecule itself
Test: single-molecule fluorescence intensity (confocal scans, optical tweezers); 2 nM TOP2α-AF555 bound at the junction of a DNA braid, 1 mM ATPγS (also four-braid substrates with ATP); 2D Gaussian fit of spot intensity, histogram of photon counts; 50 mM Tris pH 7.5, 125 mM potassium glutamate, 2.5 mM MgCl2, 0.5 mg/mL BSA

B1: Human topoisomerase II alpha labelled with Alexa Fluor 555 (TOP2α-AF555) (enzyme, UniProt P11388 1-1531, looked up)
chain: MEVSPLQPVNENMQVNKIKKNEDAKKRLSVERIYQKKTQLEHILLRPDTYIGSVELVTQQMWVYDEDVGINYREVTFVPGLYKIFDEILVNAADNKQRDPKMSCIRVTIDPENNLISIWNNGKGIPVVEHKVEKMYVPALIFGQLLTSSNYDDDEKKVTGGRNGYGAKLCNIFSTKFTVETASREYKKMFKQTWMDNMGRAGEMELKPFNGEDYTCITFQPDLSKFKMQSLDKDIVALMVRRAYDIAGSTKDVKVFLNGNKLPVKGFRSYVDMYLKDKLDETGNSLKVIHEQVNHRWEVCLTMSEKGFQQISFVNSIATSKGGRHVDYVADQIVTKLVDVVKKKNKGGVAVKAHQVKNHMWIFVNALIENPTFDSQTKENMTLQPKSFGSTCQLSEKFIKAAIGCGIVESILNWVKFKAQVQLNKKCSAVKHNRIKGIPKLDDANDAGGRNSTECTLILTEGDSAKTLAVSGLGVVGRDKYGVFPLRGKILNVREASHKQIMENAEINNIIKIVGLQYKKNYEDEDSLKTLRYGKIMIMTDQDQDGSHIKGLLINFIHHNWPSLLRHRFLEEFITPIVKVSKNKQEMAFYSLPEFEEWKSSTPNHKKWKVKYYKGLGTSTSKEAKEYFADMKRHRIQFKYSGPEDDAAISLAFSKKQIDDRKEWLTNFMEDRRQRKLLGLPEDYLYGQTTTYLTYNDFINKELILFSNSDNERSIPSMVDGLKPGQRKVLFTCFKRNDKREVKVAQLAGSVAEMSSYHHGEMSLMMTIINLAQNFVGSNNLNLLQPIGQFGTRLHGGKDSASPRYIFTMLSSLARLLFPPKDDHTLKFLYDDNQRVEPEWYIPIIPMVLINGAEGIGTGWSCKIPNFDVREIVNNIRRLMDGEEPLPMLPSYKNFKGTIEELAPNQYVISGEVAILNSTTIEISELPVRTWTQTYKEQVLEPMLNGTEKTPPLITDYREYHTDTTVKFVVKMTEEKLAEAERVGLHKVFKLQTSLTCNSMVLFDHVGCLKKYDTVLDILRDFFELRLKYYGLRKEWLLGMLGAESAKLNNQARFILEKIDGKIIIENKPKKELIKVLIQRGYDSDPVKAWKEAQQKVPDEEENEESDNEKETEKSDSVTDSGPTFNYLLDMPLWYLTKEKKDELCRLRNEKEQELDTLKRKSPSDLWKEDLATFIEELEAVEAKEKQDEQVGLPGKGGKAKGKKTQMAEVLPSPRGQRVIPRITIEMKAEAEKKNKKKIKNENTEGSPQEDGVELEGLKQRLEKKQKREPGTKTKKQTTLAFKPIKKGKKRNPWSDSESDRSSDESNFDVPPRETEPRRAATKTKFTMDLDSDEDFSDFDEKTDDEDFVPSDASPPKTKTSPKLSNKELKPQKSVVSDLEADDVKGSVPLSSSPPATHFPDETEITNPVPKKNVTVKKTAAKSQSSTSTTGAKKRAAPKGTKRDPALNSGVSQKPDPAKTKNRRKRKPSTSDDSDSNFEKIVSKAVTSKKSKGESDDFHMDFDSAVAPRAKSVRAKKPIKYLEESDEDDLF
modifications: Alexa555 conjugated CoA attached by SFP transferase to the ybbr tag (labelling efficiency ~30% or ~70%)
notes: Human topoisomerase II alpha (TOP2α), encoded from the pLIB vector with a C-terminal 3C-ybbr-tev-strepII tag; Two preparations: ~30% labelled (Strep-II tag apparently cleaved); The dimer rows rest on the ~30% preparation; also called TOP2α-Alexa555; TopIIa; source: baculovirus, SF9 or HighFive cells, purified (StrepTrap, HiTrap Heparin, size exclusion); not shown: ybbr, C-terminal, kept; StrepII, …
- stoichiometry N: 2

Source: article PMC12326010, “Substrate accessibility regulation of human TopIIa decatenation by cohesin” (Nature Communications, 2025)
